Laboratory results as given in article PMC11315924.

Target: T1, full-length human MICAL1 (human) (UniProt Q8TDZ2)
T1 sequence: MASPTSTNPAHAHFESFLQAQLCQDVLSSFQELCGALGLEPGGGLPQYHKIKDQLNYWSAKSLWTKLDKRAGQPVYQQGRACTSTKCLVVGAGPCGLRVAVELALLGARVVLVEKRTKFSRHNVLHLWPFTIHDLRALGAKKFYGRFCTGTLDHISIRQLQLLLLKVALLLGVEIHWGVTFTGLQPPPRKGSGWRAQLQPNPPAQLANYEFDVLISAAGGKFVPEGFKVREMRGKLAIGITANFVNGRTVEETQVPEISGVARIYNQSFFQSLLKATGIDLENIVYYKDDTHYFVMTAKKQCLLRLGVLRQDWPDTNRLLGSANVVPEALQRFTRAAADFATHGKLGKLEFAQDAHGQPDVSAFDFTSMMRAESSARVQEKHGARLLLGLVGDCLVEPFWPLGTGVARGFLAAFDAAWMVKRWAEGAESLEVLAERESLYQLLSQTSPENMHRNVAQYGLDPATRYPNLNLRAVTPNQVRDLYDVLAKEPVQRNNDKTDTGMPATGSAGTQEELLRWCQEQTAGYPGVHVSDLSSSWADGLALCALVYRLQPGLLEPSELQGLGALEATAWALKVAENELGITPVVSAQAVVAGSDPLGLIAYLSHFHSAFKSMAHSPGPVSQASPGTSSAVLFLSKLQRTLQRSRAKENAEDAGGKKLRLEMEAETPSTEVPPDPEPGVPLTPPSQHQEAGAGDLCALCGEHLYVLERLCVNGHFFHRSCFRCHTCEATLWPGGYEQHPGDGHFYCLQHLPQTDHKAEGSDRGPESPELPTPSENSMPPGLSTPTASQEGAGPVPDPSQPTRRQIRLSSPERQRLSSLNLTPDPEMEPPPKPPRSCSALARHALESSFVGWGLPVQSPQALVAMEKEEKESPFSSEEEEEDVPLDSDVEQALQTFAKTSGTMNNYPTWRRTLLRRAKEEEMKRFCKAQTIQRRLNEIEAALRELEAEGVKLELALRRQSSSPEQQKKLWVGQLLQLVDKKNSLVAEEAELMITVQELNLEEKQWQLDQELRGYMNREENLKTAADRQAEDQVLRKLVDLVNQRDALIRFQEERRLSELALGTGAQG

Substance: human Rab8a 1-181 with the constitutively active mutation Q67L (from UniProt P61006 1-181) (domain or fragment)
- fold enhancement of NADPH turnover of MICAL1 (0.5 μM) on adding Rab8a (40 μM): 4 fold
